In the supplement of paper PMC10567573:
± gives the standard deviation.

Experiment: protein stability index of a GFP-peptide fusion (GPS, HEK-293T) (PSI 1-6); higher = more stable
Conditions: c terminus: a fixed tail appended
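Further: 24-mer peptide tiles fused after GFP, lentivirally expressed, FACS-sorted into six equal bins by GFP/DsRed ratio, decoded by Illumina sequencing, PSI is the read-weighted mean bin number.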

Sequence | protein stability index (treatment: DMSO) | protein stability index (treatment: MLN4924 1 uM, 8 h)
YRYCCKLNKKLKSYSLSRKKIVHY [CDC14A] | 2.27 ± 0.38 | 2.25 ± 0.53
YSKESIIFGASSVDFSLSGRLLFA [GNB5] | 2.84 ± 0.74 | 2.78 ± 0.68
YSLAPNTPINQNVSLHQASLGGCS [NFE2L1] | 3.54 ± 0.1 | 3.65 ± 0.18
YSQKESGHSNWLGDPEEPLTGFSW [ATL3] | 1.92 ± 0.44 | 2.78 ± 0.1
YSYLVLLFPVFLATDYLRYKPVVL [SLC19A2] | 3.56 ± 0.34 | 3.01 ± 0.51
YTFTDTFTEKLWPLFYPGIRAGRK [TRIM39] | 2.69 ± 0.84 | 2.46 ± 0.5
YTSAGTYGLDSVKKKCLEWLLNNL [GMCL1] | 2.17 ± 0.19 | 2.16 ± 0.26
